Reference: patent US20210261648A1 (published 2021)

Experiments:
FcγRIa = target: T1, FcγRIa (human, UniProt P12314 16-292); test: SPR (Biacore), captured antibody, soluble FcγR
T1 construct: Whole entry named; also called FcgRIa; CD64A

FcγRIIa type H = target: T2, FcγRIIa type H (human, UniProt P12318 34-217); test: SPR (Biacore), captured antibody, soluble FcγR
T2 construct: extracellular domain; also called FcγRIIaH; FcgRIIaH
T2 sequence (looked up): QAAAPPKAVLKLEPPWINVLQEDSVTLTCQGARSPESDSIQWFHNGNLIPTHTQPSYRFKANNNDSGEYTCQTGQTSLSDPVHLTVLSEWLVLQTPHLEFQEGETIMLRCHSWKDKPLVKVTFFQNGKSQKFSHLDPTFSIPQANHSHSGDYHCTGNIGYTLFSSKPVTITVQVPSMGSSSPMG

FcγRIIb [1] = target: T3, FcγRIIb (human, UniProt P31994 43-217); test: SPR (Biacore), captured antibody, soluble FcγR
T3 construct: extracellular domain; also called FcgRIIb; CD32B
T3 sequence (looked up): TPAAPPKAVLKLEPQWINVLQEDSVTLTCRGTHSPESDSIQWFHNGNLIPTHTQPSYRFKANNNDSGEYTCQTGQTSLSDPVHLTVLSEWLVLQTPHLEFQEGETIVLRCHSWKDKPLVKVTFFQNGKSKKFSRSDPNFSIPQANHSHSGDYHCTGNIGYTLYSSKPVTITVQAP

FcγRIIa type R [2] = target: T4, FcγRIIa type R (human, UniProt P12318 34-217); test: SPR (Biacore), captured antibody, soluble FcγR
T4 chain: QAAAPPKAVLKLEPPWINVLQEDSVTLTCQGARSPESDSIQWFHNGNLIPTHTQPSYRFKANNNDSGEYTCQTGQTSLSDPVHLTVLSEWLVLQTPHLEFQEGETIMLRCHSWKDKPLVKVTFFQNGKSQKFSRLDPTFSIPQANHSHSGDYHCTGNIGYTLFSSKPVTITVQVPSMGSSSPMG

FcγRIIb [3] = target: T3, FcγRIIb; test: SPR (Biacore); parent = IL6R-B3/IL6R-L
FcγRIIa type R [4] = target: T4, FcγRIIa type R; test: SPR (Biacore); parent = IL6R-B3/IL6R-L

T1 sequence (P12314 16-292): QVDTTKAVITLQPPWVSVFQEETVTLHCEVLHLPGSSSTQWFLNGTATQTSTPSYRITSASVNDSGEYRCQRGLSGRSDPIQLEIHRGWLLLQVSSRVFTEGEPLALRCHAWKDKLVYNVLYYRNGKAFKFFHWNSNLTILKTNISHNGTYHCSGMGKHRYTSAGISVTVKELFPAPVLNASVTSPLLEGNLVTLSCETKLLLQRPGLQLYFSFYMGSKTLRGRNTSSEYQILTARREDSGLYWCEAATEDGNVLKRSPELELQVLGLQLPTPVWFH

Binder | Kd (FcγRIa) [nM] | Kd (FcγRIIa type H) [nM] | Kd (FcγRIIb [1]) [nM] | Kd (FcγRIIa type R [2]) [nM] | KD(IIb) of the parent polypeptide/KD(IIb) of the altered polypeptide (FcγRIIb [3]) [fold] | KD(IIaR) of the parent polypeptide/KD(IIaR) of the altered polypeptide (FcγRIIa type R [4]) [fold]
IL6R-BP497/IL6R-L (antibody, human IgG1, kappa, Alterations in EU numbering, introduced into IL6R-B3) heavy: QVQLQESGPGLVKPSETLSLTCAVSGHSISHDHAWSWVRQPPGEGLEWIGFISYSGITNYNPSLQGRVTISRDNSKNTLYLQMNSLRAEDTAVYYCARSLARTTAMDYWGEGTLVTVSSASTKGPSVFPLAPSSKSTSGGTAALGCLVKDYFPEPVTVSWNSGALTSGVHTFPAVLQSSGLYSLSSVVTVPSSSLGTQTYICNVNHKPSNTKVDKKVEPKSCDKTHTCPPCPAPDLLGDDSVFLFPPKPKDTLMISRTPEVTCVVIDVAEEDGEVKFNWYVDGVEVHNAKTKPREEQYNSTYRVVSVLTVLHQDWLNGKEYKCKVSNKGLPRPIEKTISKAKGQPREPQVYTLPPSRDELTKNQVSLTCLVKGFYPSDIAVEWESNGQPENNYKTTPPVLDSDGSFFLYSKLTVDKSRWQQGNVFSCSVMHEALHNHYTQESLSLSP light: not shown | 2.1 | 960 | 4.1 | 85 | 764 | 12.9
IL6R-BP498/IL6R-L (antibody, human IgG1, kappa, Alterations in EU numbering, introduced into IL6R-B3) heavy: QVQLQESGPGLVKPSETLSLTCAVSGHSISHDHAWSWVRQPPGEGLEWIGFISYSGITNYNPSLQGRVTISRDNSKNTLYLQMNSLRAEDTAVYYCARSLARTTAMDYWGEGTLVTVSSASTKGPSVFPLAPSSKSTSGGTAALGCLVKDYFPEPVTVSWNSGALTSGVHTFPAVLQSSGLYSLSSVVTVPSSSLGTQTYICNVNHKPSNTKVDKKVEPKSCDKTHTCPPCPAPDLLGDDSVFLFPPKPKDTLMISRTPEVTCVVIDVAEEDGEVKFNWYVDGVEVHNAKTKPREEQYNSTYRVVSVLTVLHQDWLNGKEYKCKVSNKALPRPIEKTISKAKGQPREPQVYTLPPSRDELTKNQVSLTCLVKGFYPSDIAVEWESNGQPENNYKTTPLVLDSDGSFFLYSKLTVDKSRWQQGNVFSCSVMHEALHNHYTQESLSLSP light: not shown | 1.3 | 930 | 1.7 | 51 | 1880 | 21.7
IL6R-BP499/IL6R-L (antibody, human IgG1, kappa, Alterations in EU numbering, introduced into IL6R-B3) heavy: QVQLQESGPGLVKPSETLSLTCAVSGHSISHDHAWSWVRQPPGEGLEWIGFISYSGITNYNPSLQGRVTISRDNSKNTLYLQMNSLRAEDTAVYYCARSLARTTAMDYWGEGTLVTVSSASTKGPSVFPLAPSSKSTSGGTAALGCLVKDYFPEPVTVSWNSGALTSGVHTFPAVLQSSGLYSLSSVVTVPSSSLGTQTYICNVNHKPSNTKVDKKVEPKSCDKTHTCPPCPAPDLLGDDSVFLFPPKPKDTLMISRTPEVTCVVIDVAEEDGEVKFNWYVDGVEVHNAKTKPREEQDNSTYRVVSVLTVLHQDWLNGKEYKCKVSNKALPRPIEKTISKAKGQPREPQVYTLPPSRDELTKNQVSLTCLVKGFYPSDIAVEWESNGQPENNYKTTPLVLDSDGSFFLYSKLTVDKSRWQQGNVFSCSVMHEALHNHYTQESLSLSP light: not shown | 1.2 | 1000 | 1.5 | 49 | 2120 | 22.3
IL6R-BP502/IL6R-L (antibody, human IgG1, kappa, Alterations in EU numbering, introduced into IL6R-B3) heavy: QVQLQESGPGLVKPSETLSLTCAVSGHSISHDHAWSWVRQPPGEGLEWIGFISYSGITNYNPSLQGRVTISRDNSKNTLYLQMNSLRAEDTAVYYCARSLARTTAMDYWGEGTLVTVSSASTKGPSVFPLAPSSKSTSGGTAALGCLVKDYFPEPVTVSWNSGALTSGVHTFPAVLQSSGLYSLSSVVTVPSSSLGTQTYICNVNHKPSNTKVDKKVEPKSCDKTHTCPPCPAPDLLGDDSVFLFPPKPKDTLMISRTPEVTCVVIDVAEEDGEVKFNWYVDGVEVHNAKTKPREEQDNSTYRVVSVLTVLHQDWLNGKEYKCKVSNKGLPRPIEKTISKAKGQPREPQVYTLPPSRDELTKNQVSLTCLVKGFYPSDIAVEWESNGQPENNYKTTPPVLDSDGSFFLYSKLTVDKSRWQQGNVFSCSVMHEALHNHYTQESLSLSP light: not shown | 2.1 | 1300 | 3.7 | 110 | 840 | 10.1
